Measurements: paper PMC6349121

Target: GST-cIAP1R (cIAP1 RING domain, residues 556-C, with GST) (human) (UniProt Q13490)
Assay: SPR; as a1, but UbcH5B–Ub variants diluted in running buffer containing 0.6 mM UbΔGG; GST-cIAP1R coupled to a CM-5 chip, 25 °C; steady-state affinity analysis

- Kd: 220 nM
Substance: UbcH5B–Ub in the presence of 0.6 mM UbΔGG (UbcH5B–Ub with backside-bound UbΔGG) (from UniProt P62837 1-147; P0CG47 1-76; P0CG47 1-74) (complex)
